What was measured:
[1] = target: RUNX3 (Runt-related transcription factor 3) protein, Q13761
RUNX3 (Runt-related transcription factor 3) protein, Q13761, sequence (Q13761 whole entry): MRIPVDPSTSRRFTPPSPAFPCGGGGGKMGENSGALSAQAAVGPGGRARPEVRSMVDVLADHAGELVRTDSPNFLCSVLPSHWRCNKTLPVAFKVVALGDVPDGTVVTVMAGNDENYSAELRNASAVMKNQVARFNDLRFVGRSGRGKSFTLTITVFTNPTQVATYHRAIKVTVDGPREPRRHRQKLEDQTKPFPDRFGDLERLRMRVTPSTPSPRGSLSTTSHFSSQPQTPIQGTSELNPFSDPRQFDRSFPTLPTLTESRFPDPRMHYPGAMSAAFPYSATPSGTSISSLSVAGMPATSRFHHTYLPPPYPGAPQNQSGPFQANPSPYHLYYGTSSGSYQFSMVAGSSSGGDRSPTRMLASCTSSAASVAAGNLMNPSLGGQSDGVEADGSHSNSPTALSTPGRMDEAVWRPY

Myc-RUNX3, Q13761, sequence (Q13761 whole entry): as above

Row | Protein | phosphorylation of RUNX3 at Ser-356 (immunoblot) (Myc-RUNX3, Q13761) | phosphorylation of RUNX3 at Ser-356 (immunoblot) [1]
1 | CDK4-WT (over-expressed) (protein) MATSRYEPVAEIGVGAYGTVYKARDPHSGHFVALKSVRVPNGGGGGGGLPISTVREVALLRRLEAFEHPNVVRLMDVCATSRTDREIKVTLVFEHVDQDLRTYLDKAPPPGLPAETIKDLMRQFLRGLDFLHANCIVHRDLKPENILVTSGGTVKLADFGLARIYSYQMALTPVVVTLWYRAPEVLLQSTYATPVDMWSVGCIFAEMFRRKPLFCGNSEADQLGKIFDLIGLPPEDDWPRDVSLPRGAFPPRGPRPVQSVVPEMEESGAQLLLEMLTFNPHKRISAFRALQHSYLHKDEGNPE | The over-expressed CDK4-WT phosphorylated Myc-RUNX3 2 to 4 hours after serum stimulation | 
2 | Flag-CDK4-T172A (protein) MATSRYEPVAEIGVGAYGTVYKARDPHSGHFVALKSVRVPNGGGGGGGLPISTVREVALLRRLEAFEHPNVVRLMDVCATSRTDREIKVTLVFEHVDQDLRTYLDKAPPPGLPAETIKDLMRQFLRGLDFLHANCIVHRDLKPENILVTSGGTVKLADFGLARIYSYQMALAPVVVTLWYRAPEVLLQSTYATPVDMWSVGCIFAEMFRRKPLFCGNSEADQLGKIFDLIGLPPEDDWPRDVSLPRGAFPPRGPRPVQSVVPEMEESGAQLLLEMLTFNPHKRISAFRALQHSYLHKDEGNPE |  | did not phosphorylate the 356th serine of RUNX3

Source: patent US20210330742
